Reference: patent publication CN116284393A (BEIJING DONGFANG BIOTECH CO LTD, dated 2023)

What was measured:
LILRB4抗原 (人LILRB4蛋白胞外段) [1] = target: T1, LILRB4抗原 (人LILRB4蛋白胞外段) (human, UniProt Q8NHJ6 22-259); test: ELISA, coated LILRB4, Goat Anti-Mouse IgG-HRP
T1 construct: extracellular domain; Made in house from a synthesised gene

LILRA5 [2] = target: T2, LILRA5 (UniProt A6NI73 42-268, limits assumed); test: ELISA, coated protein, antibody at 50μg/mL
LILRA2 [3] = target: T3, LILRA2 (UniProt Q8N149 24-449, limits assumed); test: ELISA, coated protein, antibody at 50μg/mL
T3 sequence (Q8N149 24-449 limits assumed): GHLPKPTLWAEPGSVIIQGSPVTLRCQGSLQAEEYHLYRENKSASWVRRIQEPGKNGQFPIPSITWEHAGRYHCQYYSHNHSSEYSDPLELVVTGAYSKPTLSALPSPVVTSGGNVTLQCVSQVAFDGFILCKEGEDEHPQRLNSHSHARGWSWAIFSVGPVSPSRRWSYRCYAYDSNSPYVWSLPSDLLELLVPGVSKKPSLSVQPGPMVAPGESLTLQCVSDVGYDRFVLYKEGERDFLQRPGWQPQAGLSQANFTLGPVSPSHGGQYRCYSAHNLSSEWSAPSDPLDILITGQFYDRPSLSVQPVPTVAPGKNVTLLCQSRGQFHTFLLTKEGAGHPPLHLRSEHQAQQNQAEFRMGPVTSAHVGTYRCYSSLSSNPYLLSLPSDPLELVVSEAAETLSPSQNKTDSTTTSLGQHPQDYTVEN

LILRA3 [4] = target: T4, LILRA3 (UniProt Q8N6C8 24-439); test: ELISA, coated protein, antibody at 50μg/mL
T4 sequence (Q8N6C8 24-439 limits assumed): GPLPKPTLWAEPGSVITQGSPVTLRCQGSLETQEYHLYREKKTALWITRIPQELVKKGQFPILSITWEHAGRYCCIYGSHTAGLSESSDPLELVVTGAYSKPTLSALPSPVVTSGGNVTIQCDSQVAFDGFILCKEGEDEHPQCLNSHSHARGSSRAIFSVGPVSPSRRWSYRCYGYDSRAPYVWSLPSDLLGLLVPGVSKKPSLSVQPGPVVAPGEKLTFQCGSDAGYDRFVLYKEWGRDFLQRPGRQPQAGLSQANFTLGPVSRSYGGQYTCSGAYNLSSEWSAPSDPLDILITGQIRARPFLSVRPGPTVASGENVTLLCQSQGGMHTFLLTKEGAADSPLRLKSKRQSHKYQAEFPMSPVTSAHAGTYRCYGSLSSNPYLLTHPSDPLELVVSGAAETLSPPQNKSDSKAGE

LILRB3 [5] = target: T5, LILRB3 (UniProt O75022 24-443, limits assumed); test: ELISA, coated protein, antibody at 50μg/mL
T5 sequence (O75022 24-443 limits assumed): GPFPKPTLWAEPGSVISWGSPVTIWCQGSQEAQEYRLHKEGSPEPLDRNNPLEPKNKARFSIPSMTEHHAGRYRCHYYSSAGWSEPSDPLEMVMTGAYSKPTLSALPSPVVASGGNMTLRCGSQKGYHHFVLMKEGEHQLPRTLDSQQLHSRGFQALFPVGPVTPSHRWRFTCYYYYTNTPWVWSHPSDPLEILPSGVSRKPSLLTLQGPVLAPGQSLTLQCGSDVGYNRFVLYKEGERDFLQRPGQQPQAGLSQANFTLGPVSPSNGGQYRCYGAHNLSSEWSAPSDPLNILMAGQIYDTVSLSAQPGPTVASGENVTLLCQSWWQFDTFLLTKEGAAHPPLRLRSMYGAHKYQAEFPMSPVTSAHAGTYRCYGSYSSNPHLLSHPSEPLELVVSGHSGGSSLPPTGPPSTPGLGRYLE

LILRA6 [6] = target: T6, LILRA6 (UniProt Q6PI73 24-447, limits assumed); test: ELISA, coated protein, antibody at 50μg/mL
T6 sequence (Q6PI73 24-447 limits assumed): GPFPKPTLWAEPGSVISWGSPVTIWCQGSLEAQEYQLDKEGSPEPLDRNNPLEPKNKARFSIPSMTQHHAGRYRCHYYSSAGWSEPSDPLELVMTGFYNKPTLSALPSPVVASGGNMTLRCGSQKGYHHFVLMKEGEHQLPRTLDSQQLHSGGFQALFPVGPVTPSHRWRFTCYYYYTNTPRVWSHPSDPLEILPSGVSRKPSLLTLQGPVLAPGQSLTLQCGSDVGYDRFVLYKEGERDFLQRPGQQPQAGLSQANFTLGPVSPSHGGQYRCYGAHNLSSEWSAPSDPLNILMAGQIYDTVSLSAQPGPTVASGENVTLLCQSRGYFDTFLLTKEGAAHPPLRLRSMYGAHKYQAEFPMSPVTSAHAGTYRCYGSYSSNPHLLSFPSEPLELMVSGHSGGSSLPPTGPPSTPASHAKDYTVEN

LILRB2 [7] = target: T7, LILRB2 (UniProt Q8N423 22-460, limits assumed); test: ELISA, coated protein, antibody at 50μg/mL
T7 sequence (Q8N423 22-460 limits assumed): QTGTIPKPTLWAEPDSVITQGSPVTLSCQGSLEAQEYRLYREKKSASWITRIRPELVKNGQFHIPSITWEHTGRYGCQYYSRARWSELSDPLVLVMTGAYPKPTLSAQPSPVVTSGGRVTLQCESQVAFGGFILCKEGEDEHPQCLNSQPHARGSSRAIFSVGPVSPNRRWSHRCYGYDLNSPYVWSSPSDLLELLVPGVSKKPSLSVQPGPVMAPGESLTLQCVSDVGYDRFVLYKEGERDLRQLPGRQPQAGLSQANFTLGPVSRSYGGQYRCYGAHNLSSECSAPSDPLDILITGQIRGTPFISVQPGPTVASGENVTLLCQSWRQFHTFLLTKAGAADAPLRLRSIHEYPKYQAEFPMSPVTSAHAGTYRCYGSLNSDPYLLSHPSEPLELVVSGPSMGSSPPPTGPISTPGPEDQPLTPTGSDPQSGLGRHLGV

LILRB5 [8] = target: T8, LILRB5 (UniProt O75023 24-458, limits assumed); test: ELISA, coated protein, antibody at 50μg/mL
T8 sequence (O75023 24-458 limits assumed): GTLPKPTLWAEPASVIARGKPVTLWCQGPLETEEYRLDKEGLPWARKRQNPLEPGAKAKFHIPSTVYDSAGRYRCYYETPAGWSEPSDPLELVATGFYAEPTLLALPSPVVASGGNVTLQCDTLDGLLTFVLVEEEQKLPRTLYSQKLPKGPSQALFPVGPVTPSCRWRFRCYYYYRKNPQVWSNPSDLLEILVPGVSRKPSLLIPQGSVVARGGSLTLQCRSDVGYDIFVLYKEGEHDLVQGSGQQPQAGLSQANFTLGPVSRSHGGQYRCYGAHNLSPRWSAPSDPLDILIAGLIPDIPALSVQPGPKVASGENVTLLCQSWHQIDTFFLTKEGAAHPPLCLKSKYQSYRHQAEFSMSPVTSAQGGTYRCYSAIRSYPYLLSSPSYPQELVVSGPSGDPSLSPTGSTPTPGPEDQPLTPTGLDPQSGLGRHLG

LILRA1 [9] = target: T9, LILRA1 (UniProt O75019 17-461, limits assumed); test: ELISA, coated protein, antibody at 50μg/mL
T9 sequence (O75019 17-461 limits assumed): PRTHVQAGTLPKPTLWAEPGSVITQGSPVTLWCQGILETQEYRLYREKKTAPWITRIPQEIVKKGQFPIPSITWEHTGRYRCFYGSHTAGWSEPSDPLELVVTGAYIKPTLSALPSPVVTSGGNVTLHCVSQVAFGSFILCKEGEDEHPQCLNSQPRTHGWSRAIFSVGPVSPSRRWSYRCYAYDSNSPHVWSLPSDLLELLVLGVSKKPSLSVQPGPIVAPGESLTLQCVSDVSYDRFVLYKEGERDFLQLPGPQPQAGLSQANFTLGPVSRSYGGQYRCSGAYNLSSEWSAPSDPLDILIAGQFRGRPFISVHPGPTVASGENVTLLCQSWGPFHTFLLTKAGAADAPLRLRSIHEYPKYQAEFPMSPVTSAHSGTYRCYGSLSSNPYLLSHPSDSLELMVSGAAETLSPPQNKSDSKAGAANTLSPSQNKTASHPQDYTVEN

LILRA4 [10] = target: T10, LILRA4 (UniProt P59901 24-446, limits assumed); test: ELISA, coated protein, antibody at 50μg/mL
T10 sequence (P59901 24-446 limits assumed): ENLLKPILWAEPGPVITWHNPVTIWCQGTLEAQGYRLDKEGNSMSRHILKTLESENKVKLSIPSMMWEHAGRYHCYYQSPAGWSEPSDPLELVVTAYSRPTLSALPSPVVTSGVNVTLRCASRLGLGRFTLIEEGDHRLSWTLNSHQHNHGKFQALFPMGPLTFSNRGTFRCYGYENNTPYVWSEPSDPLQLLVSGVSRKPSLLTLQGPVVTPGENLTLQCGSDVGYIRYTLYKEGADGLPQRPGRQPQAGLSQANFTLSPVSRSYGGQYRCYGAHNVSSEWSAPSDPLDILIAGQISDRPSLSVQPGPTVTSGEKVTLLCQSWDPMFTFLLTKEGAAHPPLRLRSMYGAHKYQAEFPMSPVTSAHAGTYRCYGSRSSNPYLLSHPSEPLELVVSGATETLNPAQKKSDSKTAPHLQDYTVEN

LILRB1 [11] = target: T11, LILRB1 (UniProt Q8NHL6 24-461, limits assumed); test: ELISA, coated protein, antibody at 50μg/mL
T11 sequence (Q8NHL6 24-461 limits assumed): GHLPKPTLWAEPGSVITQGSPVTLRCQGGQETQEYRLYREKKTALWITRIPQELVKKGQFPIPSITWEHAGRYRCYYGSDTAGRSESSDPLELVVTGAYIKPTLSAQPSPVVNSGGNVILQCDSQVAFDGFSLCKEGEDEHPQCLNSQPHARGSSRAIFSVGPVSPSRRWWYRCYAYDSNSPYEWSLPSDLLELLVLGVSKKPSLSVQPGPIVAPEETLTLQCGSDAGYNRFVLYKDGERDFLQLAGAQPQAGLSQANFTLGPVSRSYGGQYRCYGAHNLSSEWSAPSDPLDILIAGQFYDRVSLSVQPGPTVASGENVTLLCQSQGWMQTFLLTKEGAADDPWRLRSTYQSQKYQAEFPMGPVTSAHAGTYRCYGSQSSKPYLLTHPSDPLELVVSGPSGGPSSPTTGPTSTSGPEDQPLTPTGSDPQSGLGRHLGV

LILRB4抗原 (人LILRB4蛋白胞外段) [12] = target: T1, LILRB4抗原 (人LILRB4蛋白胞外段); test: ELISA, coated protein, antibody at 50μg/mL
[13] = target: T12, 人单核细胞白血病细胞(THP-1)表面LILRB4 (human, UniProt Q8NHJ6 22-448); test: cell-based or functional assay
[14] = target: T12, 人单核细胞白血病细胞(THP-1)表面LILRB4; test: flow cytometry competition on THP-1 cells, competitor FITC-labelled ApoE 0.4μg/mL
[15] = target: T12, 人单核细胞白血病细胞(THP-1)表面LILRB4; test: flow cytometry on THP-1 cells, FITC goat anti-mouse IgG
LILRA5 [16] = target: T2, LILRA5; test: ELISA, coated protein 100ng/well
LILRA2 [17] = target: T3, LILRA2; test: ELISA, coated protein 100ng/well
LILRA3 [18] = target: T4, LILRA3; test: ELISA, coated protein 100ng/well
LILRB3 [19] = target: T5, LILRB3; test: ELISA, coated protein 100ng/well
LILRA6 [20] = target: T6, LILRA6; test: ELISA, coated protein 100ng/well
LILRB2 [21] = target: T7, LILRB2; test: ELISA, coated protein 100ng/well
LILRB5 [22] = target: T8, LILRB5; test: ELISA, coated protein 100ng/well
LILRA1 [23] = target: T9, LILRA1; test: ELISA, coated protein 100ng/well
LILRA4 [24] = target: T10, LILRA4; test: ELISA, coated protein 100ng/well
LILRB1 [25] = target: T11, LILRB1; test: ELISA, coated protein 100ng/well

T2 sequence (A6NI73 42-268 limits assumed): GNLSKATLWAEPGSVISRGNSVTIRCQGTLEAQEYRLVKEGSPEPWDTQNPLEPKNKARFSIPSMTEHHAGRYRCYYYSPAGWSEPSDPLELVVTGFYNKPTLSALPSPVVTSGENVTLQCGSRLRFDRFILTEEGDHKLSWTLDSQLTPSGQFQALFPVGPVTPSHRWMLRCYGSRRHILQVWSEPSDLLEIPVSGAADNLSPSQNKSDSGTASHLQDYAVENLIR

B1: MG-Ⅰ 单克隆抗体 (mouse IgG1 / Ck full antibody) (antibody, V domains shown)
VH: EVKLEESGGGLVKPGGSLKLSCAASGFTFSSNTMSWVRQTPEKRLEWVATISSGGSYIYYRDSVKGRFTISRDNAKNTLYLQMSSLKSEDTAMYYCTSEGRSRDPYYYSMDYWGQGTSVTVSS
VL: DIVLTQTPLSLPVSLGDQASISCRSSQSLVHSNGNTYLHWYLQKPGQSPKLLIYKVSNRFSGVPDRFSGSGSGTDFTLKISRVEAEDLGVYFCSQSTHVPTFGAGTKLELKA
notes: also called 单克隆抗体MG-Ⅰ
Question: Which EC50 (LILRB4抗原 (人LILRB4蛋白胞外段) [1]) does the source give for B1 here?
Answer: 0.188 µg/mL

Question: And the “OD 450nm/630nm” value (LILRA5 [2])?
Answer: 0.066

Question: What about the “OD 450nm/630nm” value (LILRA2 [3]) of the same binder?
Answer: 0.046

Question: And the “OD 450nm/630nm” value (LILRA3 [4])?
Answer: 0.057

Question: And the “OD 450nm/630nm” value (LILRB3 [5])?
Answer: 0.05

Question: What about the “OD 450nm/630nm” value (LILRA6 [6]) of the same binder?
Answer: 0.053

Question: What about the “OD 450nm/630nm” value (LILRB2 [7]) of the same binder?
Answer: 0.04

Question: What about the “OD 450nm/630nm” value (LILRB5 [8]) of the same binder?
Answer: 0.176

Question: What about the “OD 450nm/630nm” value (LILRA1 [9]) of the same binder?
Answer: 0.103

Question: And the “OD 450nm/630nm” value (LILRA4 [10])?
Answer: 0.077

Question: And the “OD 450nm/630nm” value (LILRB1 [11])?
Answer: 0.045

Question: And the “OD 450nm/630nm” value (LILRB4抗原 (人LILRB4蛋白胞外段) [12])?
Answer: 2.72

Question: What about the “IC50(μg/mL), 抑制THP-1分泌ARG1 (arginase activity in supernatant, with 0.5μg/mL ApoE)” value [13] of the same binder?
Answer: 257 µg/mL

Question: And the IC50 [14]?
Answer: 7.18 µg/mL

Question: What about the EC50 [15] of the same binder?
Answer: 4.31 µg/mL

Question: Does B1 bind (LILRA5 [16])?
Answer: no binding (tested: 50μg/mL)

Question: Does B1 bind (LILRA2 [17])?
Answer: no binding (tested: 50μg/mL)

Question: Does B1 bind (LILRA3 [18])?
Answer: no binding (tested: 50μg/mL)

Question: Does B1 bind (LILRB3 [19])?
Answer: no binding (tested: 50μg/mL)

Question: Does B1 bind (LILRA6 [20])?
Answer: no binding (tested: 50μg/mL)

Question: Does B1 bind (LILRB2 [21])?
Answer: no binding (tested: 50μg/mL)

Question: Does B1 bind (LILRB5 [22])?
Answer: no binding (tested: 50μg/mL)

Question: Does B1 bind (LILRA1 [23])?
Answer: no binding (tested: 50μg/mL)

Question: Does B1 bind (LILRA4 [24])?
Answer: no binding (tested: 50μg/mL)

Question: Does B1 bind (LILRB1 [25])?
Answer: no binding (tested: 50μg/mL)
